Experimental data: patent US20170260258A1

Columns and labels:
[1] = target: humanized antibody HzKR127-3.1
[2] = target: humanized antibody HzKR127-3
[3] = target: KR127 antibody (murine monoclonal antibody)
[4] = target: humanized antibody HzKR127-3.2
Chain of humanized antibody HzKR127-3.2 (VH, as listed by the source, chain 1 of 2): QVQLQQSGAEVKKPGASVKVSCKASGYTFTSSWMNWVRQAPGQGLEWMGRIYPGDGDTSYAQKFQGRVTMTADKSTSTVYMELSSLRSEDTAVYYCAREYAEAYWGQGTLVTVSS
Chain of humanized antibody HzKR127-3.2 (VL, as listed by the source, chain 2 of 2): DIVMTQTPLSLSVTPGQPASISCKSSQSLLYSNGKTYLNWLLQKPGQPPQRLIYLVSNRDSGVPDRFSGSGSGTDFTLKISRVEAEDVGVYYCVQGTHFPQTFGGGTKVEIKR

Chain of GST-pre-S1 (1st to 56th amino acids) protein (P08515 whole entry): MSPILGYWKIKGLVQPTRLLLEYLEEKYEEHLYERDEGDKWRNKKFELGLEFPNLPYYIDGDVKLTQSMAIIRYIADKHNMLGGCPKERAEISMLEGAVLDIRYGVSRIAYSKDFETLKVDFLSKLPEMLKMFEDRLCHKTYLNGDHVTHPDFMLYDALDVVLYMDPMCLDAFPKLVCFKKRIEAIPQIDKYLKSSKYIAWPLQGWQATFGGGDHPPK
Chain of KR127 antibody (murine monoclonal antibody) (VH, as listed by the source, chain 1 of 2): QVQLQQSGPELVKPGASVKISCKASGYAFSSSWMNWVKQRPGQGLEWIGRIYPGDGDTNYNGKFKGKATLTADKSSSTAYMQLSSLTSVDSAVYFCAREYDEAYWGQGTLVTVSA
Chain of KR127 antibody (murine monoclonal antibody) (VL, as listed by the source, chain 2 of 2): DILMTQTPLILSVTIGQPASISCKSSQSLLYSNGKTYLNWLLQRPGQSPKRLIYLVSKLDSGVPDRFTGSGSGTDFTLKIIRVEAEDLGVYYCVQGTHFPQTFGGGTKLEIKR
Chain of humanized antibody HzKR127-3 (VH, as listed by the source limits assumed, chain 1 of 2): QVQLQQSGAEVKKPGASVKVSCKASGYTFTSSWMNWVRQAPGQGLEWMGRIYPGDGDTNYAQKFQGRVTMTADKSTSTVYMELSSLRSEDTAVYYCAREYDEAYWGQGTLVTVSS
Chain of humanized antibody HzKR127-3 (VL, as listed by the source limits assumed, chain 2 of 2): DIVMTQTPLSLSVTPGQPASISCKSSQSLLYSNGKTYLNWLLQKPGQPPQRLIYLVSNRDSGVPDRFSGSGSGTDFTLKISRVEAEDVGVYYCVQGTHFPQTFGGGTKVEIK
Chain of humanized antibody HzKR127-3.1 (VH, as listed by the source, chain 1 of 2): as the sequence (VH, as listed by the source limits assumed, chain 1 of 2) above, with D101A counted along it

GST-pre-S1 (1st to 56th amino acids) protein (from UniProt P08515 1-218)
IC50 (read off the curve) [1]: 6 nM | IC50 (read off the curve) [2]: 30 nM | IC50 (read off the curve) [3]: 20 nM | IC50 (read off the curve) [4]: 2 nM
